± gives the standard deviation of the averaged measurements.
Test system: ATP
Assay: switch fluorescence ratio, 500 uM ATP over buffer (Cy3 cluster intensity, sum of 5 cycles each) (fold (ratio)); higher = stronger signal-on switching upon ATP binding; sequences stand for … in TCGTCGGCAGCGTCAGATGTGTATAAGAGACAGTTTTTTTTTTTTTTTTTTTTTTTTT…TC
Conditions: aptamer strand: ATP DNA aptamer (quencher-CACCTGGGGGAGTATTGCGGAGGAAGG + anchor), 100 nM annealed; ATP concentration: 500 uM
How it was run: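 Cy3-labelled switching-strand clusters on a modified Illumina MiSeq flow-cell were annealed to 100 nM quencher-labelled ATP aptamer and imaged first in selection buffer, then after 15 min with 500 uM ATP at 22 °C. NaOH stripping and re-annealing separated each of five buffer/ATP cycles, and clusters outside 100-1000 RFU were excluded. The fluorescence ratio sums target-cycle Cy3 intensity over buffer-cycle Cy3 intensity per cluster and averages it per switch-domain sequence.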
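Also: ATP exposure 15 min at 22 °C before imaging.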

Row | Sequence | switch fluorescence ratio
1 | GGATGAGGCA | 1.02 ± 0.022
2 | GGGTAACGAG | 1.006 ± 0.0078
3 | TGTGAAATAG | 1.02 ± 0.028
4 | GTTTATGAGC | 1 ± 0.022
5 | ATGTCCAGGG | 1.21 ± 0.04
6 | ATGAGGAATG | 1.008 ± 0.0043
7 | CGCTCATTTG | 0.97 ± 0.016
8 | GATTTACGAT | 1.026 ± 0.0019
9 | TGGGGACTTT | 1.04 ± 0.045
10 | TCACTTCAAT | 1.033 ± 0.0099
11 | TAGGGGTGCG | 1 ± 0.038
12 | AGTATTTAGG | 0.9808 ± 0.0043
13 | TTGAATAAGA | 1 ± 0.071
14 | TTTATGGTTG | 1.02 ± 0.064
15 | TTTTGATCGT | 0.962 ± 0.023
16 | ATGGGGCTTG | 1.05 ± 0.099
17 | ATATGCCCTA | 0.9674 ± 0.0077
18 | TGGCGAACGG | 1.01 ± 0.052
19 | CGGGAGAGTT | 0.996 ± 0.065
20 | AGCAGGTTGT | 1.05 ± 0.015
21 | ACGGGTTTGG | 1.01 ± 0.023
22 | CGAGACGGGG | 0.959 ± 0.042
23 | TTGCTCTGTT | 0.988 ± 0.023
24 | CGTGAATAGT | 1.03 ± 0.041
25 | ACCCGGACCT | 1.34 ± 0.059

Row | Sequence | switch fluorescence ratio
26 | TGTTGGGCGG | 0.969 ± 0.026
27 | TGTTAATCAG | 0.98605 ± 0.00081
28 | ATCATGTACA | 0.996 ± 0.024
29 | ATGGTATCAG | 1.007 ± 0.0084
30 | TTTATAAGGC | 0.983 ± 0.061
31 | ATGAAAGTGC | 1.02 ± 0.017
32 | CGCGCCGGGC | 1.03 ± 0.057
33 | TGTTGTAGCG | 0.975 ± 0.037
34 | TTTGAGTGAG | 0.9892 ± 0.0098
35 | TAAGTGCTGG | 1.01 ± 0.016
36 | CCTTGGTACA | 1.03 ± 0.015
37 | TATAAGACTA | 1.02 ± 0.021
38 | TCAGTTTGAG | 0.97806 ± 0.0007
39 | ATTGCCGAGT | 1.03 ± 0.022
40 | TATTTTAGC | 0.971 ± 0.034
41 | CACTTGGGTG | 1.064 ± 0.0066
42 | CGGGATGGAG | 0.9879 ± 0.0062
43 | AGGGGGGATG | 0.992 ± 0.022
44 | TTGTCCTTTG | 0.993 ± 0.013
45 | AGGTGTTGGA | 0.985 ± 0.032
46 | TCTTTGACAG | 1.02 ± 0.015
47 | GCTCTGGGGA | 1.07 ± 0.12
48 | GCTGAAAAGA | 0.97 ± 0.032
49 | ACTTTGACAT | 1.072 ± 0.0092
50 | GCGTCTAGGA | 0.9839 ± 0.0033

Row | Sequence | switch fluorescence ratio
51 | TATTTTGGTT | 0.999 ± 0.015
52 | TCGTTTTGCG | 0.9977 ± 0.0086
53 | AGAACAAACC | 1.08 ± 0.018
54 | TTTGTGTCAA | 1.01 ± 0.04
55 | GAGGGGCCAG | 0.988 ± 0.027
56 | AGTGTGTGTG | 1.013 ± 0.0024
57 | CGGGTTAGGA | 1.02 ± 0.036
58 | TTTTTTATT | 0.963 ± 0.013
59 | ATTATGAGTA | 0.9727 ± 0.0091
60 | CAATTAGGAG | 0.979 ± 0.024
61 | ATATGGATTG | 1 ± 0.015
62 | AGCCGGCGGT | 1.02 ± 0.019
63 | CGAGGTGGCT | 1.01 ± 0.028
64 | TATTTTTGGA | 0.981 ± 0.043
65 | ATTTCATGCG | 1.03 ± 0.023
66 | AGAGGAAGGG | 0.993 ± 0.01
67 | ACATAAGTG | 1.02 ± 0.019
68 | TCTGGTGAAA | 1.02 ± 0.054
69 | TTCGCGTTTT | 1.02 ± 0.04
70 | TATAATCGGT | 0.975 ± 0.014
71 | GATTAGAAGT | 0.996 ± 0.016
72 | GGTGTTAGTC | 1.02 ± 0.036
73 | CAGGACTCCG | 0.98 ± 0.046
74 | CGTGAACTCT | 0.999 ± 0.016
75 | TGTACCTTTA | 1.04 ± 0.038

Row | Sequence | switch fluorescence ratio
76 | CTTTGGAGTG | 1.23 ± 0.38
77 | ATCTGTGAGG | 1.019 ± 0.0063
78 | CACTCGCCCG | 1.11 ± 0.042
79 | GTGGGGAATG | 0.986 ± 0.024
80 | GTTTTCACGT | 1.01 ± 0.013
81 | ATATTGTGAC | 1.032 ± 0.004
82 | TGGGTGCGCG | 1.014 ± 0.0063
83 | TATTGGTGGG | 0.9663 ± 0.008
84 | TATGGCATCT | 1 ± 0.051
85 | CAGCTTTGAG | 1.01 ± 0.037
86 | AAACCAGTG | 1.175 ± 0.0088
87 | AGTTAGGGTA | 0.9744 ± 0.0059
88 | GAAAAAGCGT | 1.07 ± 0.03
89 | TTTATGATGG | 1.01 ± 0.052
90 | AAGGGGGCGT | 1 ± 0.026
91 | ATTGAGGGGA | 0.994 ± 0.032
92 | CAGTATAAAG | 0.9738 ± 0.0068
93 | TCAACTATGG | 0.989 ± 0.075
94 | CGTCTGGGGA | 0.996 ± 0.048
95 | TTGAGTTTTA | 1.01 ± 0.021
96 | TTCGAAAAAG | 0.9961 ± 0.008
97 | CCAAGTAGGC | 1.13 ± 0.022
98 | TAAGGCGGAG | 0.9951 ± 0.0032
99 | GAGATCATTG | 1.07 ± 0.057
100 | TGTAATTCTA | 1.011 ± 0.0032

From the supplement of paper PMC10126150
